This passage reports decrease of the association relative to WT BAG3 results from PMC9085972.

This assay has as its target V5-HSP70 (UniProt P0DMV8). In words: co-IP.
UniProt P0DMV8, sequence (P0DMV8 whole entry): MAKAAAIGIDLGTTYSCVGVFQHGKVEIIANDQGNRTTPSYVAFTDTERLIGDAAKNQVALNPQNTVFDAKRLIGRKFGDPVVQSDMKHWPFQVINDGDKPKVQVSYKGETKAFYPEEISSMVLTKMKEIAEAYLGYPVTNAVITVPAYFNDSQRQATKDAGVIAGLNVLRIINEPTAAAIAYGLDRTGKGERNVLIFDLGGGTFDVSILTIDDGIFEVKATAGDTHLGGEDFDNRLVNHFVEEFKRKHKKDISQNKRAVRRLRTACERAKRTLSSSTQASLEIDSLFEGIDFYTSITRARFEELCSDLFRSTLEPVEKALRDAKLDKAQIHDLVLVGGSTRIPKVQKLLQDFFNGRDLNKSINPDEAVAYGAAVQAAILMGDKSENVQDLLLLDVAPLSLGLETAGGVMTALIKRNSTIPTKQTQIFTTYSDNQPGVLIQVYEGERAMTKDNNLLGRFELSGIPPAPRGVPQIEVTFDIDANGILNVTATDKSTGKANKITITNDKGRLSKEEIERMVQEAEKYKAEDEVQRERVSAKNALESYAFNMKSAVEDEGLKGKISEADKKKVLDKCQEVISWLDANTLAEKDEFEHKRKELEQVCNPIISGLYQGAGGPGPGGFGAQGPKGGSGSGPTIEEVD

The substance “BAG3 with L462P mutation (pCDH-L462P BAG3) (from UniProt O95817 1-575) (natural protein)” gave a decrease of the association relative to WT BAG3 of over 50%.
